Experimental data: US20200079833A1 (AstraZeneca / MedImmune, published 2020)
Starred links: 1 amine or outer side, 2 acyl side, 3 side chain; linkers in the order of their positions; H or OH if unused. Non-standard residues stand in square brackets, D forms with d. Groups on a side chain read outwards from the residue. Primed or numbered codes have the meaning given here. No end group written: not given here. *: point of attachment. γGlu = O=C(O)[C@H](CCC(=O)[*:2])N[*:1]; Palmitoyl = CCCCCCCCCCCCCCCC(=O)*; αMeF = C[C@](N)(Cc1ccccc1)C(=O)O; αMeK = C[C@](N)(CCCCN)C(=O)O; Lauroyl = CCCCCCCCCCCC(=O)*; αMeS = C[C@](N)(CO)C(=O)O; PEG2′ = not defined here; Aib = CC(C)(N)C(=O)O

T1: GLP-1R in the INS1e assay (UniProt P32301 22-463, limits assumed)
T1 sequence (looked up): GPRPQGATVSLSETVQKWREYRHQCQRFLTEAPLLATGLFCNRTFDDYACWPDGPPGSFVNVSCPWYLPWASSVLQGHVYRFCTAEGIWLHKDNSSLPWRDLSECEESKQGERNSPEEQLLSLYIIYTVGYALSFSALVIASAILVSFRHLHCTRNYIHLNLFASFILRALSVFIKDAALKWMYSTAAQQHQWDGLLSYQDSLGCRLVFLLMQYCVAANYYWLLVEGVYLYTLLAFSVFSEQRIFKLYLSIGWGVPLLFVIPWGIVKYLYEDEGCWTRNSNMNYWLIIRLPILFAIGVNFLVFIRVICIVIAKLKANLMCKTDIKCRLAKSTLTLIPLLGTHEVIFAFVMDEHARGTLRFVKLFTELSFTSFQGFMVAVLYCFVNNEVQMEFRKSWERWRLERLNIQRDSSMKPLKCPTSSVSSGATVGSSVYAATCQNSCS

T2: glucose-dependent insulinotropic peptide (gastric inhibitory polypeptide) receptor (GIPR), primary cAMP assay (human, UniProt P48546 22-466)
T2 sequence (looked up): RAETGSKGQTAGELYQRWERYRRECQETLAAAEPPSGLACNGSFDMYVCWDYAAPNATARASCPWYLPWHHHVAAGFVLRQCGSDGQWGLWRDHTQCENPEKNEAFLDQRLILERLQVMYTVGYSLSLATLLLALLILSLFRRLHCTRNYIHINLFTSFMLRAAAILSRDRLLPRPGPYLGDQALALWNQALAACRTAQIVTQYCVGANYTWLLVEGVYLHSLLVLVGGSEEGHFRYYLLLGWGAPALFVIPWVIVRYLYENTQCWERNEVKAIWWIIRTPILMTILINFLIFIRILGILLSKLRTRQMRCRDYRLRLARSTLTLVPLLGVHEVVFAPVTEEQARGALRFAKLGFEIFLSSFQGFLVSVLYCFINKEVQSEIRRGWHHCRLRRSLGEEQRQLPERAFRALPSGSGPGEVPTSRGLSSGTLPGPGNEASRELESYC


target: T1, GLP-1R in the INS1e assay; assay: cell-based or functional assay

Row | INS1e assay EC50 (cAMP) Mean [nM] | INS1e assay EC50 (cAMP) n1 [nM] | INS1e assay EC50 (cAMP) n2 [nM] | Binder
1 | 19.3 | 14.3 | 24.3 | H[Aib]EGTFTSDVSK([PEG2′-PEG2′-γGlu-Lauroyl])FLEGEAAEEFIK([PEG2′-PEG2′-γGlu-Lauroyl])WVVEGG-NH2 [SEQ ID NO: 237]
2 | 12.3 | 12 | 12.7 | H[Aib]EGTFTSDVSK([PEG2′-PEG2′-γGlu-Lauroyl])YLEGEAAEEFIK([PEG2′-PEG2′-γGlu-Lauroyl])WVVEGG-NH2 [SEQ ID NO: 236]
3 | 13 | 14.7 | 11.2 | H[Aib]EGTFTSDVSK([PEG2′-PEG2′-γGlu-Lauroyl])FLEGEAAEEFIK([PEG2′-PEG2′-γGlu-Lauroyl])FVVEGG-NH2 [SEQ ID NO: 239]
4 | 13.7 | 15 | 12.4 | H[Aib]EGTFTSDVSK([PEG2′-PEG2′-γGlu-Lauroyl])YLEGEAAEEFIK([PEG2′-PEG2′-γGlu-Lauroyl])FVVEGG-NH2 [SEQ ID NO: 238]

target: glucagon receptor (GCGR), primary cAMP assay (human, UniProt P47871 26-477); assay: cell-based or functional assay
Sequence (P47871 26-477): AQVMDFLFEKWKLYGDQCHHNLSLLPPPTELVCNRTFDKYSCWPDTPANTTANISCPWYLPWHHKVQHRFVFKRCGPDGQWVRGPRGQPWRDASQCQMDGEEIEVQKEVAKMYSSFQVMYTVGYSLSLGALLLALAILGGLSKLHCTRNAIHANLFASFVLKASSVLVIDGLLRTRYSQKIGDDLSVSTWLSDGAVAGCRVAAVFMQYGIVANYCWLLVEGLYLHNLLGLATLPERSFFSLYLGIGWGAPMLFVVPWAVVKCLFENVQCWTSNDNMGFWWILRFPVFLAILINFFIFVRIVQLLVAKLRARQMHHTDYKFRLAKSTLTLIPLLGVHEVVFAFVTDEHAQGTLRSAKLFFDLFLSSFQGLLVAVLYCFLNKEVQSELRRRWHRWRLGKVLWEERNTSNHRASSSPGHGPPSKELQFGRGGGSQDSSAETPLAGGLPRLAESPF

Row | Binder | Primary assay EC50 (cAMP), n1 [nM] | Primary assay EC50 (cAMP), n2 [nM]
5 | H[Aib]EGTFTSDVSK([PEG2′-PEG2′-γGlu-Lauroyl])FLEGEAAEEFIK([PEG2′-PEG2′-γGlu-Lauroyl])WVVEGG-NH2 [SEQ ID NO: 237] | 22.3 | 22.3
6 | H[Aib]EGTFTSDVSK([PEG2′-PEG2′-γGlu-Lauroyl])YLEGEAAEEFIK([PEG2′-PEG2′-γGlu-Lauroyl])WVVEGG-NH2 [SEQ ID NO: 236] | 22.2 | 22.2
7 | H[Aib]EGS[αMeF]TSDVSK([PEG2′-PEG2′-γGlu-Palmitoyl])YLEGEAA[αMeK]EFIAK([PEG2′-PEG2′-γGlu-Palmitoyl])VVEGG-NH2 [SEQ ID NO: 254] | 21.9 | 21.9
8 | H[Aib]EGTFTSDVSK([PEG2′-PEG2′-γGlu-Lauroyl])FLEGEAAEEFIK([PEG2′-PEG2′-γGlu-Lauroyl])FVVEGG-NH2 [SEQ ID NO: 239] | 22.5 | 22.5
9 | H[Aib]EGTFTSDVSK([PEG2′-PEG2′-γGlu-Lauroyl])YLEGEAAEEFIK([PEG2′-PEG2′-γGlu-Lauroyl])FVVEGG-NH2 [SEQ ID NO: 238] | 22.4 | 22.4

Now from value to binder:

Row | Primary assay EC50 (cAMP), n1 [nM] | Primary assay EC50 (cAMP), n2 [nM] | Binder
10 | 21.9 | 21.9 | H[Aib]EGS[αMeF]TSDV[αMeS]SYK([PEG2′-PEG2′-γGlu-Palmitoyl])EGEAA[αMeK]EFIAK([PEG2′-PEG2′-γGlu-Palmitoyl])VVEGG-NH2 [SEQ ID NO: 272]
11 | 22.3 | 22.3 | H[Aib]EGS[αMeF]TSDK([PEG2′-PEG2′-γGlu-Lauroyl])SSYLEGEAA[αMeK]EFIAWK([PEG2′-PEG2′-γGlu-Lauroyl])VEGG-NH2 [SEQ ID NO: 258]
12 | 21.9 | 21.9 | H[Aib]EGS[αMeF]TSDK([PEG2′-PEG2′-γGlu-Palmitoyl])SSYLEGEAA[αMeK]EFIAK([PEG2′-PEG2′-γGlu-Palmitoyl])VVEGG-NH2 [SEQ ID NO: 260]

target: T2, glucose-dependent insulinotropic …; assay: cell-based or functional assay

Row | Binder | Primary assay EC50 (cAMP), n1 [nM] | Primary assay EC50 (cAMP), n2 [nM]
13 | H[Aib]EGTFTSDVSK([PEG2′-PEG2′-γGlu-Lauroyl])FLEGEAAEEFIK([PEG2′-PEG2′-γGlu-Lauroyl])WVVEGG-NH2 [SEQ ID NO: 237] | 22.3 | 22.3
14 | H[Aib]EGTFTSDVSK([PEG2′-PEG2′-γGlu-Lauroyl])YLEGEAAEEFIK([PEG2′-PEG2′-γGlu-Lauroyl])WVVEGG-NH2 [SEQ ID NO: 236] | 22.2 | 22.2
15 | H[Aib]EGS[αMeF]TSDVSK([PEG2′-PEG2′-γGlu-Palmitoyl])YLEGEAA[αMeK]EFIAK([PEG2′-PEG2′-γGlu-Palmitoyl])VVEGG-NH2 [SEQ ID NO: 254] | 21.9 | 21.9
16 | H[Aib]EGTFTSDVSK([PEG2′-PEG2′-γGlu-Lauroyl])FLEGEAAEEFIK([PEG2′-PEG2′-γGlu-Lauroyl])FVVEGG-NH2 [SEQ ID NO: 239] | 22.5 | 22.5
17 | H[Aib]EGTFTSDVSK([PEG2′-PEG2′-γGlu-Lauroyl])YLEGEAAEEFIK([PEG2′-PEG2′-γGlu-Lauroyl])FVVEGG-NH2 [SEQ ID NO: 238] | 22.4 | 22.4

Now from value to binder:

Row | Primary assay EC50 (cAMP), n1 [nM] | Primary assay EC50 (cAMP), n2 [nM] | Binder
18 | 21.9 | 21.9 | H[Aib]EGS[αMeF]TSDV[αMeS]SYK([PEG2′-PEG2′-γGlu-Palmitoyl])EGEAA[αMeK]EFIAK([PEG2′-PEG2′-γGlu-Palmitoyl])VVEGG-NH2 [SEQ ID NO: 272]
19 | 22.3 | 22.3 | H[Aib]EGS[αMeF]TSDK([PEG2′-PEG2′-γGlu-Lauroyl])SSYLEGEAA[αMeK]EFIAWK([PEG2′-PEG2′-γGlu-Lauroyl])VEGG-NH2 [SEQ ID NO: 258]
20 | 21.9 | 21.9 | H[Aib]EGS[αMeF]TSDK([PEG2′-PEG2′-γGlu-Palmitoyl])SSYLEGEAA[αMeK]EFIAK([PEG2′-PEG2′-γGlu-Palmitoyl])VVEGG-NH2 [SEQ ID NO: 260]

target: GLP-1 receptor (GLP-1R), primary cAMP assay (human, UniProt P43220 24-463); assay: cell-based or functional assay

Row | Binder | Primary assay EC50 (cAMP) Mean [nM] | Primary assay EC50 (cAMP), n1 [nM] | Primary assay EC50 (cAMP), n2 [nM]
21 | H[Aib]EGTFTSDVSK([PEG2′-PEG2′-γGlu-Lauroyl])FLEGEAAEEFIK([PEG2′-PEG2′-γGlu-Lauroyl])WVVEGG-NH2 [SEQ ID NO: 237] | 0.0209 | 0.0195 | 0.0223
22 | H[Aib]EGTFTSDVSK([PEG2′-PEG2′-γGlu-Lauroyl])YLEGEAAEEFIK([PEG2′-PEG2′-γGlu-Lauroyl])WVVEGG-NH2 [SEQ ID NO: 236] | 0.0217 | 0.0165 | 0.0268
23 | H[Aib]EGS[αMeF]TSDVSK([PEG2′-PEG2′-γGlu-Palmitoyl])YLEGEAA[αMeK]EFIAK([PEG2′-PEG2′-γGlu-Palmitoyl])VVEGG-NH2 [SEQ ID NO: 254] | 0.205 | 0.223 | 0.186
24 | H[Aib]EGTFTSDVSK([PEG2′-PEG2′-γGlu-Lauroyl])FLEGEAAEEFIK([PEG2′-PEG2′-γGlu-Lauroyl])FVVEGG-NH2 [SEQ ID NO: 239] | 0.0074 | 0.0063 | 0.00845
25 | H[Aib]EGTFTSDVSK([PEG2′-PEG2′-γGlu-Lauroyl])YLEGEAAEEFIK([PEG2′-PEG2′-γGlu-Lauroyl])FVVEGG-NH2 [SEQ ID NO: 238] | 0.011 | 0.00875 | 0.0132

Results, then the binder that gave them:

Row | Primary assay EC50 (cAMP) Mean [nM] | Primary assay EC50 (cAMP), n1 [nM] | Primary assay EC50 (cAMP), n2 [nM] | Binder
26 | 0.335 | 0.339 | 0.331 | H[Aib]EGS[αMeF]TSDV[αMeS]SYK([PEG2′-PEG2′-γGlu-Palmitoyl])EGEAA[αMeK]EFIAK([PEG2′-PEG2′-γGlu-Palmitoyl])VVEGG-NH2 [SEQ ID NO: 272]
27 | 0.0923 | 0.0596 | 0.125 | H[Aib]EGS[αMeF]TSDK([PEG2′-PEG2′-γGlu-Lauroyl])SSYLEGEAA[αMeK]EFIAWK([PEG2′-PEG2′-γGlu-Lauroyl])VEGG-NH2 [SEQ ID NO: 258]
28 | 0.389 | 0.334 | 0.443 | H[Aib]EGS[αMeF]TSDK([PEG2′-PEG2′-γGlu-Palmitoyl])SSYLEGEAA[αMeK]EFIAK([PEG2′-PEG2′-γGlu-Palmitoyl])VVEGG-NH2 [SEQ ID NO: 260]
